The experiment deals with MERS-CoV spike receptor binding domain (RBD), residues 367–606, His-tagged (MERS-CoV), K0BRG7. The experiment in a line: SPR. To be noted: remark: other sources report otherwise.

This is an account of results in paper PMC7095341.

B1: human CD26 (dipeptidyl peptidase 4), residues 39–766, His-tagged, P27487 39-766 (receptor)
chain: SRKTYTLTDYLKNTYRLKLYSLRWISDHEYLYKQENNILVFNAEYGNSSVFLENSTFDEFGHSINDYSISPDGQFILLEYNYVKQWRHSYTASYDIYDLNKRQLITEERIPNNTQWVTWSPVGHKLAYVWNNDIYVKIEPNLPSYRITWTGKEDIIYNGITDWVYEEEVFSAYSALWWSPNGTFLAYAQFNDTEVPLIEYSFYSDESLQYPKTVRVPYPKAGAVNPTVKFFVVNTDSLSSVTNATSIQITAPASMLIGDHYLCDVTWATQERISLQWLRRIQNYSVMDICDYDESSGRWNCLVARQHIEMSTTGWVGRFRPSEPHFTLDGNSFYKIISNEEGYRHICYFQIDKKDCTFITKGTWEVIGIEALTSDYLYYISNEYKGMPGGRNLYKIQLSDYTKVTCLSCELNPERCQYYSVSFSKEAKYYQLRCSGPGLPLYTLHSSVNDKGLRVLEDNSALDKMLQNVQMPSKKLDFIILNETKFWYQMILPPHFDKSKKYPLLLDVYAGPCSQKADTVFRLNWATYLASTENIIVASFDGRGSGYQGDKIMHAINRRLGTFEVEDQIEAARQFSKMGFVDNKRIAIWGWSYGGYVTSMVLGSGSGVFKCGIAVAPVSRWEYYDSVYTERYMGLPTPEDNLDHYRNSTVMSRAENFKQVEYLLIHGTADDNVHFQQSAQISKALVDVGVDFQAMWYTDEDHGIASSTAHQHIYTHMSHFIKQCFSLP
modifications: here or on the partner: N229-linked carbohydrate
A word on the Kd: it is the equilibrium constant for the complex coming apart. Low readings indicate a tighter complex, high ones a looser complex. By koff is commonly meant the first-order rate constant of dissociation. A low value points to a long-lived complex. In general, kon refers to the second-order rate constant of association. A lower kon goes with slow association. With B1, the equilibrium dissociation constant (Kd) amounted to 16.7 nM, the off-rate (koff) is 0.00299 s⁻¹ and the kon was 179000 M⁻¹ s⁻¹.
